B1: proteinase 3 (enzyme, UniProt P24158 28-248, looked up)
chain: IVGGHEAQPHSRPYMASLQMRGNPGSHFCGGTLIHPSFVLTAAHCLRDIPQRLVNVVLGAHNVRTQEPTQQHFSVAQVFLNNYDAENKLNDVLLIQLSSPANLSASVATVQLPQQDQPVPHGTQCLAMGWGRVGAHDPPAQVLQELNVTVVTFFCRPHNICTFVPRRKAGICFGDSGGPLICDGIIQGIDSFVIWGCATRLFPDFFTRVALYVDWIRSTLR
notes: proteinase 3 (PR3), bought pure enzyme, active site titrated; also called PR3; pure PR3; source: bought: Merck, pure

Columns and labels:
proteinase 3 [1] = biological target: proteinase 3 (UniProt P24158); test: time course of enzyme inhibition (residual activity, second order association rate constant); methylamine-treated serum A1AT and PR3, equimolar, 1 nM each, 23°C, plate wells of 150 uL; residual PR3 activity at 1-5 min with the FRET substrate Abz-VAD-norV-ADRQ-EDDnp
proteinase 3 [2] = biological target: proteinase 3 (UniProt P24158); test: time course of enzyme inhibition (residual activity, second order association rate constant); purified M or Z variant A1AT and PR3, equimolar, 1 nM each, 23°C, plate wells of 150 uL; residual PR3 activity at 1-5 min with the FRET substrate Abz-VAD-norV-ADRQ-EDDnp
[3] = biological target: T1, F variant alpha-1-antitrypsin (human (endogenous in serum), UniProt P01009 25-418, arginine at residue 223 by cysteine); test: time course of enzyme inhibition (residual activity, second order association rate constant); methylamine-treated serum A1AT and PR3, equimolar, 1 nM each, 23°C, plate wells of 150 uL; residual PR3 activity at 1-5 min with the FRET substrate Abz-VAD-norV-ADRQ-EDDnp; conditions: one partner purified
T1 construct: alpha-1-antitrypsin (A1AT), F variant, human serum; arginine at residue 223 replaced by cysteine; also called F variant A1AT; F A1AT; source: endogenous, serum of a PiFF homozygote, treated with methylamine
T1 sequence (P01009 other isoform, or with tags, fused parts or gaps with the stated changes): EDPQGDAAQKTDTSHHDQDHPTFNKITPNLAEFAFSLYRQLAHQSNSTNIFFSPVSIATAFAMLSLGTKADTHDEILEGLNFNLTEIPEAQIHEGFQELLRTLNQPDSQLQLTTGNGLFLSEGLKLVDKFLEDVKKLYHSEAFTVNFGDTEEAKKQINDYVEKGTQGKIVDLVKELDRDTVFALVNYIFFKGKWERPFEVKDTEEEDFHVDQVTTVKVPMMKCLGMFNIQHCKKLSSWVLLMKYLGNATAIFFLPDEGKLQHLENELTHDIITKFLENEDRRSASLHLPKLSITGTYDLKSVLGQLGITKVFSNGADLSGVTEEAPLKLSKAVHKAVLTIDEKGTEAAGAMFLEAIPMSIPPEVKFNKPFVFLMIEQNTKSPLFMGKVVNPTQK

[4] = biological target: T2, M variant alpha-1-antitrypsin (human (endogenous in serum), UniProt P01009 25-418); test: as above; conditions: one partner purified
T2 construct: alpha-1-antitrypsin (A1AT), normal M variant, human serum or bought pure protein; the assays tell them apart; also called M variant A1AT; pure M variant A1AT; source: endogenous, serum of healthy PiMM controls, treated with methylamine; also bought: Athens Research and Technology, pure
T2 sequence (P01009 25-418, change not shown): as the sequence (P01009 other isoform, or with tags, fused parts or gaps with the stated changes) above, with C223R counted along it

[5] = biological target: T2, M variant alpha-1-antitrypsin; test: time course of enzyme inhibition (residual activity, second order association rate constant); purified M or Z variant A1AT and PR3, equimolar, 1 nM each, 23°C, plate wells of 150 uL; residual PR3 activity at 1-5 min with the FRET substrate Abz-VAD-norV-ADRQ-EDDnp; conditions: both partners purified

Molecule | kon (proteinase 3 [1]) | kon (proteinase 3 [2]) | kon [3] | kon [4] | kon [5]
S variant alpha-1-antitrypsin (from UniProt P01009 25-418) (natural protein) | 951000 M⁻¹ s⁻¹ | – | – | – | –
Z variant alpha-1-antitrypsin (from UniProt P01009 25-418) (natural protein) | 1.1e+06 M⁻¹ s⁻¹ | 1.03e+06 M⁻¹ s⁻¹ | – | – | –
B1 | – | – | 1.06e+06 M⁻¹ s⁻¹ | 924000 M⁻¹ s⁻¹ | 983000 M⁻¹ s⁻¹
